Biological target: poly-L-arginine hydrochloride
Assay: optical reflectometry; PARG layer adsorbed on silica in a stagnation point flow cell; HSA 5 mg L^-1 flowed over it at Q = 8.33 x 10^-3 cm^3 s^-1; 150 mM NaCl, pH 4.0; 298 K

plateau coverage: 0.1 mg m^−2
Substance: human serum albumin (from UniProt P02768 25-609)

Source: publication PMC11117822
